{"source": "patent US11426447B2", "about": "“Neuregulin for the treatment of tumors of the nervous system” (LEIBNIZ-INSTITUT FUR …, priority 2016, dated 2022)", "molecules": {"B1": {"name": "rhNRG1: EGF domain containing 7 kDa protein of recombinant human Neuregulin 1, purchased from Reprokine (#RKQ02297) (protein, listed as Homo sapiens)", "chain": "SHLVKCAEKEKTFCVNGGECFMVKDLSNPSRYLCKCPNEFTGDRCQNYVMASFYKHLGIEF"}}, "key": {"[1]": {"test_system": "sciatic nerve crush injury", "test": "Single-frame motion analysis (foot-base angle): functional recovery after sciatic nerve crush", "assay_type": "in vivo, mice", "description": "Unilateral injuries of sciatic nerves were accomplished according to a previously described method (Bauder and Ferguson, 2012). In brief, 8 to 10 week old mice were anesthetized using 2% isoflurane in 100% oxygen. Fur was then removed from one hind limb. After an appropriate incision of the skin, the gluteal musculature was separated in order to reveal the right sciatic nerve. Using haemostatic forceps (Ultra Fine Haemostat; #13021-12; tip width 0.6 mm; Fine Science Tools; Germany), the nerve was crushed once by the application of a defined pressure for 20 s. The locking mechanism of the haemostatic forceps with a series of interlocking teeth ensured reproducibility and standardization of crush injury. Finally, both the gluteal musculature and skin incision were sutured using appropriate surgical suture material.\nTo evaluate locomotor function, mice were accustomed, in 3-4 trials, to beam-walking 1 week prior to surgery. In this test, the animal walks voluntarily from one end of a horizontal beam (length 1000 mm, width 40 mm) towards its home cage located at the other end of the beam. For all mice, a rear view of one walking trial was captured once prior to surgery and at different time-points after surgery with a Video camera and stored on a personal computer in Audio Video Interleaved (AVI) format. The video sequences were examined using VirtualDub 1.6.19 software.\nIt was tested whether rhNRG1 protein replacement can improve functional recovery of mice over a time period of 8 weeks after sciatic nerve crush."}, "neurofibromas": {"test_system": "neurofibromas", "test": "Quantification of tumors in Nf1flox;Postn-Cre mice", "assay_type": "in vivo", "conditions": "intraperitoneal rhNRG1 for three months, vs saline", "description": "PFA-fixed tissue blocks derived from rhNRG1 and control treated animals containing lower spinal cord, lumbar dorsal root ganglions (DRG) as well as distal nerve proportions were cut in 4 planes per animal. Photographs were subsequently scanned and analyzed using the NanoZoomer Digital Pathology Software. The total area occupied by peripheral nerve tissue and dorsal root ganglion (DRG) tissue in mm^2 was quantified separately. Likewise, neoplastic tissue regions were identified and quantified separately for peripheral nerves and DRG areas. All quantitative analyses of tumorlets in Nf2flox;Postn-Cre mice were performed in blinded manner.\nAnother closely related but not similar entity of Schwann cell tumors are neurofibromas. As opposed to schwannomas, Schwann cells represent the primary neoplastic cell component of neurofibromas (Stemmer-Rachamimov et al., 2004; Rodriguez et al., 2012), but also incorporate a mixture of non-neoplastic components, including axons, perineurial cells, fibroblasts and inflammatory cells. In order to test a possible effect of rhNRG1 treatment on these tumors, which are a typical manifestation of the hereditary disease Neurofibromatosis type 1 (NF1), 4-month-old mutant Nf1flox;Postn-Cre animals as well as wildtype littermates were either treated with saline control injections or intraperitoneal rhNRG1 administration for three months (FIG. 9A). […]"}, "Schwann cells": {"test_system": "Schwann cells", "test": "Neuropathological assessment (HE, immunolabelling) of sciatic nerve cross sections 3 months after crush injury", "assay_type": "in vivo, P0-Cre;Nefh-Cre;Nf2fl/+ mice", "conditions": "KO mice", "description": "For histological workup, paraformaldehyd fixed nerve samples were embedded in paraffin, cut at the site of the largest diameter and mounted as a tissue micro array. 4 μm thick cross sections were used for H&E staining and immunohistochemical labelling of S100 (1:8000; Dako), P0 (1:300; Bioss Antibodies), phospho-c-Jun (Ser73; 1:500; Cell Signalling; 8752), ErbB2 (1:500; Cell Signaling) and Arginase-1 (1:200; Santa Cruz; H-52) in an automated Ventana stainer (Ventana Medical Systems, USA) using standard antigen retrieval protocols (CC1st, no pretreatment for S100-protein). Onion-bulbs and schwannoma-like structures were assessed in H&E stained slides.\nImmunohistochemistry was performed as described in (Schulz et al., 2010). Briefly, paraffin-embedded, longitudinal sections of sciatic nerves were rehydrated, boiled in 10 mM sodium citrate buffer (pH9) for 30 min in a microwave and subsequently treated with 0,5% Triton X-100 for 10 min. Sections incubated in 0.2% gelatine and 2% goat serum diluted in PBS at least 2 h. Sections submersed in the primary antibody solution overnight at 4° C. The following primary antibodies were used: Myelin protein zero (P0; 1:200; Abcam; ab39375), neurofilament (1:200; BioLegend; SMI312), myelin basic protein (MBP; 1:500; Millipore; MAB384)), Ki-67 (1:200; eBioscience; Clone: SolA15), lba-1 (1:200; Wako), and p75 (1:200; Merck Millipore; AB 1554). After vigorous washings, sections incubated with secondary antibody solution (Alexa488-, Alexa546- or Alexa647-conjugated anti-mouse, -rat, -chicken and -rabbit antibodies, 1:500 in PBS, Invitrogen) at room temperature for 2 h. Finally specimens washed in PBS, counterstained using DAPI (1 μg/ml PBS, 10 min) dehydrated and embedded. DAPI-stained cell nuclei or lba-1-positive cells were counted using ImageJ plugin ‘Particle Analysis’ from images acquired with 10× magnification after standardized background reduction and threshold setting.\nSciatic nerve crush injury was performed on WT and Nf2flox;P0-Cre;Nefh-Cre mutant animals as described in Example 1. The Nf2flox;P0-Cre;Nefh-Cre mutant animals were intraperitoneally injected every day with 10 μg of rhNRG1 per kg body weight (KO rhNRG1). For a control a PBS solution was systemically administered to WT animals and Nf2flox;P0-Cre;Nefh-Cre mutant animals (WT vehicle and KO vehicle). Sciatic nerve lysates were taken from animals after 3 month of treatment upon which immunochemistry was performed as described in Example 1."}, "[2]": {"conditions": "systemic rhNRG1, 3 months after crush injury"}, "[3]": {"conditions": "systemic rhNRG1 vs saline-treated same genotype"}}}
{"molecule": "B1", "values": [{"measurement": "functional recovery after sciatic nerve crush (SFMA)", "setting": "[1]; Nf2flox;P0-Cre;Nefh-Cre mutant mice, intraperitoneal injections every other day, vs no treatment or saline", "value": "significantly improved recovery"}, {"measurement": "functional regeneration after sciatic nerve crush (SFMA)", "setting": "[1]; Nf2flox;P0-Cre;Nefh-Cre mutant mice, local administration with absorbable collagen sponges, vs control treatment", "value": "able to increase functional regeneration"}, {"measurement": "functional recovery after sciatic nerve crush (SFMA)", "setting": "[1]; wildtype animals, systemic rhNRG1, 8 weeks", "value": "does not enhance regeneration"}, {"measurement": "neurofibromas from distal parts of the nervous system (tumor fraction)", "setting": "neurofibromas", "value": "significant effect"}, {"measurement": "number of immature Schwann cells (p75 staining)", "setting": "Schwann cells; rhNRG1 injections", "value": "relevantly decreased"}, {"measurement": "immunoreactivity of schwannoma marker CPI-17", "setting": "Schwann cells; rhNRG1 vs KO control injections", "value": "relevantly lower"}, {"measurement": "S100 and MPZ immunoreactivity", "setting": "Schwann cells; [2]", "value": "restricted to Schwann cells with myelinating phenotype"}, {"measurement": "nerve regeneration (histology)", "setting": "Schwann cells; [2]", "value": "almost regular regeneration"}, {"measurement": "expression of Neuregulin1 (immunolabelling)", "setting": "Schwann cells; [3]", "value": "greatly reduced"}, {"measurement": "expression of receptor tyrosine kinase ErbB2 (immunolabelling)", "setting": "Schwann cells; [3]", "value": "greatly reduced"}]}
